Reference: the supplement of paper PMC11208486

What was measured:
[1] = melting temperature (ThermoFMN); higher = more thermostable
Description: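 Purified His-tagged ene reductases (1 mg/ml) in 50 mM sodium phosphate pH 7.4 with 0-30% (v/v) organic co-solvent. Melting temperature was measured by the ThermoFMN assay (FMN fluorescence, 20-90 °C at 1 °C/min, inflection point, triplicate). Specific initial activity was measured with 10 mM cyclohex-2-enone and 0.2 mM NAD(P)H (NADH for LacER) as A340 depletion, at room temperature (DMSO, 2-propanol, n-propanol) or 25 °C (EtOH, MeOH), in triplicate. The TsOYE Tm is above the 90 °C measurement range.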

[2] = specific initial activity, cyclohex-2-enone reduction (U mg-1); higher = more active; conditions: co-solvent: ethanol
Description: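 Specific initial activity of purified ene reductases with 10 mM cyclohex-2-enone and 0.2 mM NAD(P)H in 50 mM sodium phosphate pH 7.4 with 0-45% (v/v) ethanol or methanol, at set reaction temperatures of 25-45 °C. NAD(P)H depletion was followed at 340 nm for 480 s, in triplicate.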

MSFVKDFKPQALGDTNLFKPIKIGNNELLHRAVIPPLTRMRALHPGNIPNRDWAVEYYTQRAQRPGTMIITEGAFISPQAGGYDNAPGVWSEEQMVEWTKIFNAIHEKKSFVWVQLWVLGWAAFPDNLARDGLRYDSASDNVFMDAEQEAKAKKANNPQHSLTKDEIKQYIKEYVQAAKNSIAAGADGVEIHSANGYLLNQFLDPHSNTRTDEYGGSIENRARFTLEVVDALVEAIGHEKVGLRLSPYGVFNSMSGGAETGIVAQYAYVAGELEKRAKAGKRLAFVHLVEPRVTNPFLTEGEGEYEGGSNDFVYSIWKGPVIRAGNFALHPEVVREEVKDKRTLIGYGRFFISNPDLVDRLEKGLPLNKYDRDTFYQMSAHGYIDYPTYEEALKLGWDKK
melting temperature [°C], [1]
Conditions | co-solvent concentration (% v/v): 0 | co-solvent concentration (% v/v): 5 | co-solvent concentration (% v/v): 10 | co-solvent concentration (% v/v): 15 | co-solvent concentration (% v/v): 20 | co-solvent concentration (% v/v): 25 | co-solvent concentration (% v/v): 30
co-solvent: 2-propanol | 45 | 44 | 41.3 | 37.3 | 34.7 | 33.7 | 28.3
co-solvent: dimethyl sulfoxide | 45 | 44.3 | 43.3 | 42 | 40.7 | 39.3 | 37.3
co-solvent: ethanol | 45.3 | 43.3 | 42 | 39.7 | 37.7 | 35.3 | 34.3
co-solvent: methanol | 46 | 45 | 43 | 42 | 40.3 | 37.7 | 34.7
co-solvent: n-propanol | 45 | 40.3 | 34.7 | 31.7 | 31 | 30.3 | 27.3

[2]
Conditions | specific initial activity
co-solvent concentration (% v/v): 0, reaction temperature 25 °C | 0.2
co-solvent concentration (% v/v): 0, reaction temperature 30 °C | 0.23
co-solvent concentration (% v/v): 0, reaction temperature 35 °C | 0.36
co-solvent concentration (% v/v): 0, reaction temperature 40 °C | 0.33
co-solvent concentration (% v/v): 0, reaction temperature 45 °C | 0.1
co-solvent concentration (% v/v): 5, reaction temperature 25 °C | 0.28
co-solvent concentration (% v/v): 5, reaction temperature 30 °C | 0.32
co-solvent concentration (% v/v): 5, reaction temperature 35 °C | 0.47
co-solvent concentration (% v/v): 5, reaction temperature 40 °C | 0.34
co-solvent concentration (% v/v): 5, reaction temperature 45 °C | 0.17
co-solvent concentration (% v/v): 10, reaction temperature 25 °C | 0.27
co-solvent concentration (% v/v): 10, reaction temperature 30 °C | 0.37
co-solvent concentration (% v/v): 10, reaction temperature 35 °C | 0.52
co-solvent concentration (% v/v): 10, reaction temperature 40 °C | 0.21
co-solvent concentration (% v/v): 10, reaction temperature 45 °C | 0.12
co-solvent concentration (% v/v): 15, reaction temperature 25 °C | 0.32
co-solvent concentration (% v/v): 15, reaction temperature 30 °C | 0.36
co-solvent concentration (% v/v): 15, reaction temperature 35 °C | 0.52
co-solvent concentration (% v/v): 15, reaction temperature 40 °C | 0.09
co-solvent concentration (% v/v): 15, reaction temperature 45 °C | 0.05
co-solvent concentration (% v/v): 20, reaction temperature 25 °C | 0.36
co-solvent concentration (% v/v): 20, reaction temperature 30 °C | 0.35
co-solvent concentration (% v/v): 20, reaction temperature 35 °C | 0.32
co-solvent concentration (% v/v): 20, reaction temperature 40 °C | 0.02
co-solvent concentration (% v/v): 20, reaction temperature 45 °C | 0.02
co-solvent concentration (% v/v): 25, reaction temperature 25 °C | 0.27
co-solvent concentration (% v/v): 25, reaction temperature 30 °C | 0.21
co-solvent concentration (% v/v): 25, reaction temperature 35 °C | 0.03
co-solvent concentration (% v/v): 25, reaction temperature 40 °C | 0.01
co-solvent concentration (% v/v): 25, reaction temperature 45 °C | 0.01
co-solvent concentration (% v/v): 30, reaction temperature 25 °C | 0.15
co-solvent concentration (% v/v): 30, reaction temperature 30 °C | 0.15
